This note sets out measurements from patent US20230065562A1, “DUAL CONTROLS FOR THERAPEUTIC CELL ACTIVATION OR ELIMINATION” (Bellicum Pharmaceuticals, Inc., priority 2015, published 2023).

The experiment has as its system HEK293T/16 cells. The experiment in a line: Secreted alkaline phosphatase (SEAP)-based surrogate killing assay of iCasp9 mutants. It is filed as cell-based, human. As to conditions: for Basal Activity (relative to wild type/unmodified Caspase-9): SEAP assay without AP1903; for basal activity: relative SEAP activity Units: no AP1903. On the procedure:
Early passage HEK293T/16 cells (ATCC, Manassas, Va.) were maintained in IMDM, GlutaMAX™ (Life Technologies, Carlsbad, Calif.) supplemented with 10% FBS, 100 U/mL penicillin, and 100 […] until transfection in a humidified, 37° C., 5% CO2/95% air atmosphere. Cells in logarithmic-phase growth were transiently transfected with 800 ng to 2 μg of expression plasmid encoding iCasp9 mutants and 500 ng of an expression plasmid encoding SRα promoter driven SEAP per million cells in 15-mL conical tubes. […] GeneJammer® Transfection Reagent at a ratio of 3 μl per ug of plasmid DNA was used to transiently transfect HEK293T/16 cells in the absence of antibiotics. 100 μl or 2 mL of the transfection mixture was added to each well in 96-well or 6-well plate, respectively.
Briefly, after 65° C. heat denaturation for 45 minutes to reduce background caused by endogenous (and serum-derived) alkaline phosphatases that are sensitive to heat, 5 μl of supernatants was added to 95 μl of PBS and added to 100 μl of substrate buffer, containing 1 μl of 100 mM 4-methylumbelliferyl phosphate (4-MUP; Sigma, St. Louis, Mo.) re-suspended in 2 M diethanolamine. Hydrolysis of 4-MUP by SEAP produces a fluorescent […] with excitation/emission (355/460 nm), which can be easily measured. Assays were performed in black opaque 96-well plates to minimize fluorescence leakage between wells. […] of the mixture was seeded onto each well of a 96-well plate. […] For the assay, 4-methylumbelliferyl phosphate substrate was hydrolyzed by SEAP to 4-methylumbelliferon, a metabolite that can be excited with 364 nm and detected with an emission filter of 448 nm. Since SEAP is used as a marker for cell viability, reduced SEAP reading corresponds with increased iCaspase-9 activities.

What is called IC50 is the concentration that inhibits the measured activity by half. Read a low IC50 as higher potency.

Entries after “also recorded” stand apart in the source; their conditions may differ.

B1: F404W: modified iCasp9, F404W (protein)
chain: VDGFGDVGALESLRGNADLAYILSMEPCGHCLIINNVNFCRESGLRTRTGSNIDCEKLRRRFSSLHFMVEVKGDLTAKKMVLALLELARQDHGALDCCVVVILSHGCQASHLQFPGAVYGTDGCPVSVEKIVNIFNGTSCPSLGGKPKLFFIQACGGEQKDHGFEVASTSPEDESPGSNPEPDATPFQEGLRTFDQLDAISSLPTPSDIFVSYSTFPGFVSWRDPKSGSWYVETLDDIFEQWAHSEDLQSLLLRVANAVSVKGIYKQMPGCWNFLRKKLFFKTSASRA
As for B1, the “Basal Activity (relative to wild type/unmodified Caspase-9)” value was “lowered basal activity; also recorded: Decreased”.

B2: F406T: modified iCasp9, F406T (protein)
chain: VDGFGDVGALESLRGNADLAYILSMEPCGHCLIINNVNFCRESGLRTRTGSNIDCEKLRRRFSSLHFMVEVKGDLTAKKMVLALLELARQDHGALDCCVVVILSHGCQASHLQFPGAVYGTDGCPVSVEKIVNIFNGTSCPSLGGKPKLFFIQACGGEQKDHGFEVASTSPEDESPGSNPEPDATPFQEGLRTFDQLDAISSLPTPSDIFVSYSTFPGFVSWRDPKSGSWYVETLDDIFEQWAHSEDLQSLLLRVANAVSVKGIYKQMPGCFNTLRKKLFFKTSASRA
On to B2, for which the “Basal Activity (relative to wild type/unmodified Caspase-9)” value is reported as “lowered basal activity; also recorded: Decreased”.

B3: F406L: modified iCasp9, F406L (protein)
chain: VDGFGDVGALESLRGNADLAYILSMEPCGHCLIINNVNFCRESGLRTRTGSNIDCEKLRRRFSSLHFMVEVKGDLTAKKMVLALLELARQDHGALDCCVVVILSHGCQASHLQFPGAVYGTDGCPVSVEKIVNIFNGTSCPSLGGKPKLFFIQACGGEQKDHGFEVASTSPEDESPGSNPEPDATPFQEGLRTFDQLDAISSLPTPSDIFVSYSTFPGFVSWRDPKSGSWYVETLDDIFEQWAHSEDLQSLLLRVANAVSVKGIYKQMPGCFNLLRKKLFFKTSASRA
For B3, the “Basal Activity (relative to wild type/unmodified Caspase-9)” value is “lowered basal activity and dead”.

B4: F404A: modified iCasp9, F404A (protein, UniProt P55211 1-416, looked up, variant F404A)
chain: MDEADRRLLRRCRLRLVEELQVDQLWDALLSRELFRPHMIEDIQRAGSGSRRDQARQLIIDLETRGSQALPLFISCLEDTGQDMLASFLRTNRQAAKLSKPTLENLTPVVLRPEIRKPEVLRPETPRPVDIGSGGFGDVGALESLRGNADLAYILSMEPCGHCLIINNVNFCRESGLRTRTGSNIDCEKLRRRFSSLHFMVEVKGDLTAKKMVLALLELAQQDHGALDCCVVVILSHGCQASHLQFPGAVYGTDGCPVSVEKIVNIFNGTSCPSLGGKPKLFFIQACGGEQKDHGFEVASTSPEDESPGSNPEPDATPFQEGLRTFDQLDAISSLPTPSDIFVSYSTFPGFVSWRDPKSGSWYVETLDDIFEQWAHSEDLQSLLLRVANAVSVKGIYKQMPGCANFLRKKLFFKTS
modifications: FKBP12-F36V fusion (iCasp9), CARD deleted
Take B4: the “Basal Activity (relative to wild type/unmodified Caspase-9)” value is “lowered basal activity and dead”.

B5: N405A: modified iCasp9, N405A (protein, UniProt P55211 1-416, looked up, variant N405A)
chain: MDEADRRLLRRCRLRLVEELQVDQLWDALLSRELFRPHMIEDIQRAGSGSRRDQARQLIIDLETRGSQALPLFISCLEDTGQDMLASFLRTNRQAAKLSKPTLENLTPVVLRPEIRKPEVLRPETPRPVDIGSGGFGDVGALESLRGNADLAYILSMEPCGHCLIINNVNFCRESGLRTRTGSNIDCEKLRRRFSSLHFMVEVKGDLTAKKMVLALLELAQQDHGALDCCVVVILSHGCQASHLQFPGAVYGTDGCPVSVEKIVNIFNGTSCPSLGGKPKLFFIQACGGEQKDHGFEVASTSPEDESPGSNPEPDATPFQEGLRTFDQLDAISSLPTPSDIFVSYSTFPGFVSWRDPKSGSWYVETLDDIFEQWAHSEDLQSLLLRVANAVSVKGIYKQMPGCFAFLRKKLFFKTS
modifications: FKBP12-F36V fusion (iCasp9), CARD deleted
On to B5, for which the “Basal Activity (relative to wild type/unmodified Caspase-9)” value is given as “no effect”.

B6: N405T: modified iCasp9, N405T (protein, UniProt P55211 1-416, looked up, variant N405T)
chain: MDEADRRLLRRCRLRLVEELQVDQLWDALLSRELFRPHMIEDIQRAGSGSRRDQARQLIIDLETRGSQALPLFISCLEDTGQDMLASFLRTNRQAAKLSKPTLENLTPVVLRPEIRKPEVLRPETPRPVDIGSGGFGDVGALESLRGNADLAYILSMEPCGHCLIINNVNFCRESGLRTRTGSNIDCEKLRRRFSSLHFMVEVKGDLTAKKMVLALLELAQQDHGALDCCVVVILSHGCQASHLQFPGAVYGTDGCPVSVEKIVNIFNGTSCPSLGGKPKLFFIQACGGEQKDHGFEVASTSPEDESPGSNPEPDATPFQEGLRTFDQLDAISSLPTPSDIFVSYSTFPGFVSWRDPKSGSWYVETLDDIFEQWAHSEDLQSLLLRVANAVSVKGIYKQMPGCFTFLRKKLFFKTS
modifications: FKBP12-F36V fusion (iCasp9), CARD deleted
Regarding B6, the “Basal Activity (relative to wild type/unmodified Caspase-9)” value is listed as “increased basal activity”.

B7: F406W: modified iCasp9, F406W (protein, UniProt P55211 1-416, looked up, variant F406W)
chain: MDEADRRLLRRCRLRLVEELQVDQLWDALLSRELFRPHMIEDIQRAGSGSRRDQARQLIIDLETRGSQALPLFISCLEDTGQDMLASFLRTNRQAAKLSKPTLENLTPVVLRPEIRKPEVLRPETPRPVDIGSGGFGDVGALESLRGNADLAYILSMEPCGHCLIINNVNFCRESGLRTRTGSNIDCEKLRRRFSSLHFMVEVKGDLTAKKMVLALLELAQQDHGALDCCVVVILSHGCQASHLQFPGAVYGTDGCPVSVEKIVNIFNGTSCPSLGGKPKLFFIQACGGEQKDHGFEVASTSPEDESPGSNPEPDATPFQEGLRTFDQLDAISSLPTPSDIFVSYSTFPGFVSWRDPKSGSWYVETLDDIFEQWAHSEDLQSLLLRVANAVSVKGIYKQMPGCFNWLRKKLFFKTS
modifications: FKBP12-F36V fusion (iCasp9), CARD deleted
In the case of B7, the “Basal Activity (relative to wild type/unmodified Caspase-9)” value was “lowered basal activity; also recorded: Decreased”.

B8: G402I: modified iCasp9, G402I (protein, UniProt P55211 1-416, looked up, variant G402I)
chain: MDEADRRLLRRCRLRLVEELQVDQLWDALLSRELFRPHMIEDIQRAGSGSRRDQARQLIIDLETRGSQALPLFISCLEDTGQDMLASFLRTNRQAAKLSKPTLENLTPVVLRPEIRKPEVLRPETPRPVDIGSGGFGDVGALESLRGNADLAYILSMEPCGHCLIINNVNFCRESGLRTRTGSNIDCEKLRRRFSSLHFMVEVKGDLTAKKMVLALLELAQQDHGALDCCVVVILSHGCQASHLQFPGAVYGTDGCPVSVEKIVNIFNGTSCPSLGGKPKLFFIQACGGEQKDHGFEVASTSPEDESPGSNPEPDATPFQEGLRTFDQLDAISSLPTPSDIFVSYSTFPGFVSWRDPKSGSWYVETLDDIFEQWAHSEDLQSLLLRVANAVSVKGIYKQMPICFNFLRKKLFFKTS
modifications: FKBP12-F36V fusion (iCasp9), CARD deleted
B8: the “Basal Activity (relative to wild type/unmodified Caspase-9)” value is on record as “dead”. Also, the “Basal Activity (relative to wild type/unmodified Caspase-9)” value (listed as G4021) was “catalytically inactive”.

B9: F406A: modified iCasp9, F406A (protein, UniProt P55211 1-416, looked up, variant F406A)
chain: MDEADRRLLRRCRLRLVEELQVDQLWDALLSRELFRPHMIEDIQRAGSGSRRDQARQLIIDLETRGSQALPLFISCLEDTGQDMLASFLRTNRQAAKLSKPTLENLTPVVLRPEIRKPEVLRPETPRPVDIGSGGFGDVGALESLRGNADLAYILSMEPCGHCLIINNVNFCRESGLRTRTGSNIDCEKLRRRFSSLHFMVEVKGDLTAKKMVLALLELAQQDHGALDCCVVVILSHGCQASHLQFPGAVYGTDGCPVSVEKIVNIFNGTSCPSLGGKPKLFFIQACGGEQKDHGFEVASTSPEDESPGSNPEPDATPFQEGLRTFDQLDAISSLPTPSDIFVSYSTFPGFVSWRDPKSGSWYVETLDDIFEQWAHSEDLQSLLLRVANAVSVKGIYKQMPGCFNALRKKLFFKTS
modifications: FKBP12-F36V fusion (iCasp9), CARD deleted
As to B9, the “Basal Activity (relative to wild type/unmodified Caspase-9)” value was “lowered basal activity; also recorded: Decreased”.

B10: D330A-N405Q: modified iCasp9 double mutant (SEQ ID NO: 28) (protein)
chain: GFGDVGALESLRGNADLAYILSMEPCGHCLIINNVNFCRESGLRTRTGSNIDCEKLRRRFSSLHFMVEVKGDLTAKKMVLALLELARQDHGALDCCVVVILSHGCQASHLQFPGAVYGTDGCPVSVEKIVNIFNGTSCPSLGGKPKLFFIQACGGEQKDHGFEVASTSPEDESPGSNPEPDATPFQEGLRTFDQLAAISSLPTPSDIFVSYSTFPGFVSWRDPKSGSWYVETLDDIFEQWAHSEDLQSLLLRVANAVSVKGIYKQMPGCFQFLRKKLFFKTS
For the molecule B10, the “Basal Activity (relative to wild type/unmodified Caspase-9)” value is recorded as “intermediate; also recorded: Decreased”. For the same molecule, the “basal activity: relative SEAP activity Units” value (1 μg iCasp9 per million cells) stood at 205772 Units. Further, the “basal activity: relative SEAP activity Units” value (2 μg iCasp9 per million cells) stood at 174366 Units. The IC50 (AP1903, SEAP screening assay) was 0.05 nM.
